Laboratory results: the supplement of paper PMC10567573

B1: NCF4 (parent)
chain: FGPDSKSSALACTLPTLPAKVYVG

Variants of: B1
Experiment: protein stability index of a GFP-peptide fusion (GPS, HEK-293T) (PSI 1-6); higher = more stable
Details: c terminus: a fixed tail appended
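Also: lentivirally expressed fusions sorted by FACS into six bins by GFP to DsRed ratio, PSI derived from sequencing read proportions per bin multiplied by bin number.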

Protein stability index, by site and new letter:
L10: Y 1.86; T 3.57; C 2.69; P 3.58; N 3.73; H 2.88; I 2.12; F 2.15; E 3.65; R 3.23; M 2.69; V 2.88; A 2.99; K 3.29; S 2.64; G 2.93; D 3.99; Q 2.95
K6: G 2.48; Y 1.43; P 2.33; E 2.54; F 1.53; N 2.8; A 1.95; V 2.07; H 2.29; I 1.95; M 2.89; T 2.78; Q 2.45; L 1.63; S 2.41; W 3.06; D 3.17; C 2.02; R 1.76
C12: Y 1.88; M 2.77; T 2.76; H 3.16; L 2.33; N 2.77; F 1.7; G 2.41; A 2.87; S 2.87; D 2.95; I 2.3; Q 2.36; K 2.95; R 2.5; E 3.13; W 1.88; V 2.19
P3: W 1.46; H 2.46; L 2.17; V 1.86; G 2.07; N 2.21; M 2.01; D 2.19; C 2.04; T 2.25; A 2.45; F 1.72; E 3.02; Y 1.73; Q 3.09; R 2.35; S 2.35; I 2.13; K 2.56
T13: L 1.83; P 1.88; E 2.7; C 1.96; K 2.46; A 2.28; R 2.33; N 2.9; Q 2.19; I 2.18; F 2.39; M 2.15; H 1.85; D 2.81; G 1.85
G2: P 2.59; F 3.06; C 1.12; Q 1.49; Y 2.22; N 1.77; M 1.84; I 1.96; E 3.43; T 2.06; V 3.38; H 1.61; S 2.34; R 2.6; A 2.57; W 1.65; L 2.06; K 3.02; D 3.1
A9: K 1.89; W 2.52; Y 1.5; G 1.67; D 3.18; I 1.86; N 2.49; E 3.67; C 1.74; L 1.11; V 2.25; R 2.29; Q 2.46; S 2.23; M 1.9; H 2.23; P 1.57; T 2.44
A11: F 2.4; S 2.45; V 1.76; D 2.99; R 1.58; P 2.17; I 2.24; E 2.63; G 2.22; H 2.23; T 2.51; Q 3; M 2.86; N 2.78; L 2.18; C 2.35; K 2.29; Y 1.46
S5: M 1.89; K 2.28; H 2.36; P 2.75; E 3.13; C 1.8; V 2.46; N 2.65; Y 1.51; T 2.32; Q 3.47; R 2.2; A 2.34; L 2.12; D 3.16; I 2.41
F1: K 3.17; R 2.54; V 2.92; S 3.64; C 2.67; E 4.28; Q 3.02
